Target: PP2A-B56γ1 holoenzyme (UniProt P30153)
Sequence (P30153 whole entry, chain 1 of 3, other chains not shown): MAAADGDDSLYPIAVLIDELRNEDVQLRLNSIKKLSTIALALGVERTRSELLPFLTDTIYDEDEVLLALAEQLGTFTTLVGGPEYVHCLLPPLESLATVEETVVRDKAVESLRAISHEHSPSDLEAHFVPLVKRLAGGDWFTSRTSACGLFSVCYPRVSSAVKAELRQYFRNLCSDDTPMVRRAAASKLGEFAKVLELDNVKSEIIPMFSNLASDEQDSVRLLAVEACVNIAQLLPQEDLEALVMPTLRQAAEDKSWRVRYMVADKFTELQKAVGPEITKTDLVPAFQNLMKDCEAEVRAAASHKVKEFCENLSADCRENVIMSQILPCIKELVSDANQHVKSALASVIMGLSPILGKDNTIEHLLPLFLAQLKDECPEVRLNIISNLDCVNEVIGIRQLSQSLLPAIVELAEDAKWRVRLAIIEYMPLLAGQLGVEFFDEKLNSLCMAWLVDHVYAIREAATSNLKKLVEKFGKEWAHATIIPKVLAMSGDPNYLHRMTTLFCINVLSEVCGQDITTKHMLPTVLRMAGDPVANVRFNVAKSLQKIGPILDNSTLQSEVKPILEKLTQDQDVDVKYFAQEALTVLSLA
Sequence (P67775 whole entry, chain 2 of 3, other chains not shown, further chain): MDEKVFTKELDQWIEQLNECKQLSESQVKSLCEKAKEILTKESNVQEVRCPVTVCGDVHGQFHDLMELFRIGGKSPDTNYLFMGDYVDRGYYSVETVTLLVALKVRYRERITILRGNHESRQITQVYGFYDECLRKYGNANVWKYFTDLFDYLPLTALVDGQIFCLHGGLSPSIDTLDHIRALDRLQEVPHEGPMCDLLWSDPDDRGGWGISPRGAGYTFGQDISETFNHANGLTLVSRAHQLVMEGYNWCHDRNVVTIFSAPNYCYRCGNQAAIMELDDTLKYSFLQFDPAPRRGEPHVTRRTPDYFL

pS133-CREB (129–154) peptide, sequence (P16220 129-154): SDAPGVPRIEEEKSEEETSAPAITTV

pS133-CREB (129–154) peptide (from UniProt P16220-2 129-154)
Km of PP2A-B56γ1 holoenzyme phosphatase activity toward pS133-CREB (129–154), steady-state kinetics with a phosphate sensor (peptide 3.9 to 250 μM): 10.3 μM
